Reference: the supplement of paper PMC9112550, “Optimization of the antimicrobial peptide Bac7 by deep mutational scanning” (BMC Biology, 2022)

Test system: Escherichia coli TOP10
Assay: shrunken log2 fold change of peptide-encoding DNA abundance (4.5 h post-induction vs induction); higher = less antimicrobial activity (less host growth inhibition)
Settings: time post-induction: 4.5 h; library: site-saturation at positions 5, 18, 19, 20
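Note: peptides expressed intracellularly from a pBAD plasmid library in pooled LB shake-flask culture, induced with 0.3% L-arabinose, DNA abundance read by NGS, three biological replicates, DESeq2 with apeglm shrinkage.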

Sequence	shrunken log2 fold change
RRIRNRPPRLPRPRPRPHHPPRP	-0.398
RRIRGRPPRLPRPRPRPVFKPRP	0.193
RRIRGRPPRLPRPRPRPEPFPRP	0.218
RRIRVRPPRLPRPRPRPAYDPRP	-0.565
RRIRNRPPRLPRPRPRPGGCPRP	0.203
RRIRSRPPRLPRPRPRPQNQPRP	-0.455
RRIRCRPPRLPRPRPRPWGLPRP	-0.268
RRIRQRPPRLPRPRPRPEYVPRP	-0.0886
RRIRYRPPRLPRPRPRPNCEPRP	-0.144
RRIRFRPPRLPRPRPRPHGWPRP	0.309
RRIRIRPPRLPRPRPRPFDCPRP	-0.0028
RRIRSRPPRLPRPRPRPHTAPRP	-0.175
RRIRQRPPRLPRPRPRPWGCPRP	-0.122
RRIRQRPPRLPRPRPRPYDMPRP	-0.626
RRIRNRPPRLPRPRPRPNKAPRP	-0.000622
RRIRFRPPRLPRPRPRPTEQPRP	-0.0361
RRIRARPPRLPRPRPRPKGWPRP	0.862
RRIRCRPPRLPRPRPRPAWTPRP	-0.154
RRIRQRPPRLPRPRPRPCDNPRP	-0.269
RRIRERPPRLPRPRPRPKYAPRP	0.0159
RRIRMRPPRLPRPRPRPDPDPRP	0.634
RRIRLRPPRLPRPRPRPMYPPRP	-0.0826
RRIRARPPRLPRPRPRPIIPPRP	-0.256
RRIRGRPPRLPRPRPRPYDMPRP	-0.0187
RRIRMRPPRLPRPRPRPCGLPRP	0.533

Sequence	shrunken log2 fold change
RRIRLRPPRLPRPRPRPTVEPRP	0.114
RRIRQRPPRLPRPRPRPGQDPRP	0.102
RRIRQRPPRLPRPRPRPPAEPRP	0.589
RRIRYRPPRLPRPRPRPILPPRP	0.00451
RRIRQRPPRLPRPRPRPFGEPRP	0.287
RRIRCRPPRLPRPRPRPMRVPRP	0.839
RRIRKRPPRLPRPRPRPDWQPRP	-0.0216
RRIRYRPPRLPRPRPRPDHKPRP	-0.308
RRIRLRPPRLPRPRPRPELNPRP	0.145
RRIRKRPPRLPRPRPRPHLEPRP	-0.0191
RRIRGRPPRLPRPRPRPQKQPRP	0.154
RRIRQRPPRLPRPRPRPQTFPRP	0.028
RRIRRRPPRLPRPRPRPLNQPRP	0.0755
RRIRQRPPRLPRPRPRPHISPRP	-0.312
RRIRFRPPRLPRPRPRPQWRPRP	1.49
RRIRQRPPRLPRPRPRPKAQPRP	0.0112
RRIRGRPPRLPRPRPRPFSAPRP	0.0503
RRIRKRPPRLPRPRPRPEDSPRP	1.28
RRIRSRPPRLPRPRPRPHSTPRP	-0.312
RRIRQRPPRLPRPRPRPVQKPRP	0.25
RRIRTRPPRLPRPRPRPRNNPRP	-0.803
RRIRYRPPRLPRPRPRPLTIPRP	-0.0265
RRIRTRPPRLPRPRPRPEQDPRP	0.0235
RRIRHRPPRLPRPRPRPIHHPRP	-0.216
RRIRWRPPRLPRPRPRPGKIPRP	0.159
